± gives the uncertainty stated by the source.

The nature of the data set: amyloid nucleation score (Sup35N fusion, yeast selection) (log enrichment); library NNK3; higher = more nucleation; inactive = no reads after selection. Put shortly: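 Sup35N was fused to peptides of 20 random codons and expressed in psi-negative yeast, which were induced with 100 μM copper sulfate for 24 hours and then grown on medium lacking adenine and uracil for 7 days at 30°C. Plasmid inserts from input and output were sequenced on Illumina. The nucleation score is the DiMSum log enrichment of output over input reads, centred on the mode score of non-aggregating sequences. Sequences with under 100 input reads were left out, and random libraries had three technical output replicates.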
In turn, TSYDFTMARYCSNDYVFIWH showed an amyloid nucleation score of 2.44 ± 0.061. The value for TSYKKRFCGQYLMLNVNMSW was “inactive”; that for TSYYSMVEHSLKYQDRLMSS was “inactive”; that for TTASFFLNKISLKNHRASCT was “inactive”. The value for TTGLISSNGVTG was “inactive”; that for TTGMRYCLVFDIGFSFWLFM was “inactive”. For the substance TTHNAFMSNNNIR, the amyloid nucleation score stood at 0.711 ± 0.13. For TTLLFMKH the value was “inactive”. The value for TTMNVTFVPANLWCKSSHEA was “inactive”; that for TTNDWHTFSGMVIKGWHIGK was “inactive”; that for TTQILYTFY was 1.56 ± 0.12. For TTSEAIMLGCSISTYNQSGN, the amyloid nucleation score entry was “inactive”. TTTAYWNESDTLRCMLV yielded an amyloid nucleation score of -0.757 ± 1.4. TVCLVAITKAPRRCNSQHWD returned an amyloid nucleation score of -0.917 ± 1.9. The value for TVCYYWRN was 0.911 ± 0.2; that for TVERILC was “inactive”; that for TVEVFNHMRERHNYMS was “inactive”. For TVFSDFSGSKEMTVTIRRWV the value was “inactive”; for TVLGM, 0.699 ± 0.17; for TVLLLGRWYN, 1.24 ± 0.14. For TVLWFSC the value was “inactive”; for TVLYLNDDIATYHRMLVFRV, “inactive”; for TVMPLRMSSISGSAGTSA, “inactive”. Turning to TVQNVLCHCMMSNMAYWGHQ, the amyloid nucleation score was 2.63 ± 0.082. The value for TVRKHLLLDHKWYVVNSEIT was “inactive”; that for TVRVYIHIYHIGFLGPMRSE was 0.889 ± 0.22. The value for TVSGLMVFVMHNGYS was 1.45 ± 0.084.

Regarding TVVIVPNWPVCRGHDFGERC, the amyloid nucleation score result was “inactive”. The value for TWDWGCKVGFRKGKKV was “inactive”. For TWNMFDGSVRHFSIWFSARS, the amyloid nucleation score entry was “inactive”.

Regarding TWQEVMNVQRTS, the amyloid nucleation score entry was “inactive”. The value for TWQVFSASVTVSLSYTSK was “inactive”. For the substance TWRNLILRFGCGGFSKTTFK, the amyloid nucleation score result is “inactive”. Turning to TWVTAGYCVNIYRTRSWMK, the amyloid nucleation score entry is “inactive”. The value for TWVWGKFFGFLNSDISDVRH was “inactive”; that for TWWFK was -0.234 ± 0.28; that for TWYVLSNDNSCVYTGPTCQ was “inactive”. For TYFHIRCVV the value was “inactive”. For TYFTFSTWLRMYSGYSLVQV the value was “inactive”; for TYPRLNVHLLPLDFILYPH, “inactive”.

In the case of TYSNMCVSDVLCLTLT, the amyloid nucleation score was 2.38 ± 0.048. Turning to TYYSLVF, the amyloid nucleation score entry was “inactive”.

With VAADITSEA, the amyloid nucleation score entry was “inactive”.

Consider VAAFVNRARNATFVLALYCY, for which the amyloid nucleation score entry is “inactive”. The value for VAFSFYFNSILVSVTRIVGS was 0.773 ± 0.15; that for VAPLANHKASRDSYAYVSGS was “inactive”; that for VCEQYFGRCNLRNKFCIWTL was “inactive”. The value for VCGIVIRGKVPKDKQYNMGE was “inactive”; that for VCHGRSNHA was “inactive”; that for VCLDHHGVGFYVRSSSCSS was “inactive”. For VCLHDRLGVHVGQIRLGYRC the value was “inactive”.

For the substance VCLLSS, the amyloid nucleation score entry was “inactive”.

As to VCMFEFMDKFWNFVVTAEQC, the amyloid nucleation score entry is “inactive”. Regarding VCRGQRISACQSRSVCGCWH, the amyloid nucleation score entry was “inactive”. For VCSLVGKKRPHGSTSI the value was “inactive”; for VCVRYLFLFFSLIFYSGT, “inactive”. For VCWMSVRDNNNGHFLIYSSD the value was “inactive”; for VCYLFWDVWVFLGEVTANT, “inactive”. Consider VDFYAQ, for which the amyloid nucleation score result is “inactive”.

Regarding VDGATFFISWKIMARDSYRY, the amyloid nucleation score entry was “inactive”.

Regarding VDGSVNMRALKCINNCVL, the amyloid nucleation score result is “inactive”. The value for VDMRSDDLIMQFWQLLSDDV was “inactive”; that for VDRFRSQNKFVSNGMSLIRK was “inactive”. For VDVDPVSSD, the amyloid nucleation score entry was “inactive”. The value for VEAHLLL was 0.01 ± 0.87; that for VEGATWHTWSCVNHVVVKGF was “inactive”. Turning to VEVMSGDEMWCLWLEFPSFE, the amyloid nucleation score result is “inactive”. The value for VEYNWSLFFNPRDFRGARDL was 0.505 ± 0.27. For VFEHVGWNPHVRYTVNR the value was “inactive”. The value for VFFVQCNHWNGMVNVFAM was 2.9 ± 0.057; that for VFFYSDHVLCVYFVSLYSFS was 0.386 ± 0.42; that for VFGET was “inactive”. As to VFGMKSRDIRIS, the amyloid nucleation score entry was “inactive”. For VFGRLFIQMPKLTINQGKFH the value was 1.83 ± 0.089; for VFGRWCFLETCMMHFTFSRY, 0.865 ± 0.22.

As for VFHHIILRFN, the amyloid nucleation score result is “inactive”. The value for VFISLVLSDLRSFARVVLGG was “inactive”. For VFMCILDWRVNSHMCLKLFH the value was “inactive”.

Regarding VFNWYEVVFTFWCNMTANGM, the amyloid nucleation score turned out to be 1.49 ± 0.069.

For the substance VFSDGLFVMTAAVYQYT, the amyloid nucleation score entry is “inactive”. Regarding VFSDTRCVCRKRSSVFKIVS, the amyloid nucleation score result is “inactive”. For VFSFLYIRNV the value was 1.55 ± 0.087. For VFTFRWHVWRDWLMSEHCDK the value was -0.296 ± 0.55; for VFYELAYFSNNQTDQWVLD, “inactive”. For VFYMRSETKLFL the value was -0.391 ± 0.8; for VGCRMPVACRTWRDKYALAR, “inactive”; for VGFPPSSTSRCR, “inactive”. VGGGSFCFKHRLNGGTDGHV returned an amyloid nucleation score of 1.11 ± 0.13. For VGGLSSDPTADISFVVVFQD the value was 0.089 ± 0.71; for VGHERTVSLQHCGRRLRWCW, “inactive”. For VGIKTFGESGMYQVCSQVSC the value was “inactive”; for VGLAVVSLLSNRRNEDELCF, “inactive”; for VGQFVRGLVKLCNGMYYWWL, “inactive”.

VGSAGVSVFVWRVCRFCEGN had an amyloid nucleation score of -0.434 ± 1.1. The value for VGSCIVKMIDFASTKGRGLI was “inactive”; that for VGSIYDSHNLPMSGHSDWNG was “inactive”. The value for VGSYVGRAVVEGYNCRVDTG was “inactive”; that for VGTFWGFTIPSWYSVVVEVC was “inactive”; that for VGYFV was “inactive”. The value for VGYGFIC was “inactive”; that for VGYVWIDRYVWRYGLC was “inactive”.

Regarding VHFCWNADVSLHITLVGINS, the amyloid nucleation score result was “inactive”. For VHFYWS the value was “inactive”; for VHHLLELEQVHNKDGTF, “inactive”. As for VHICKWVM, the amyloid nucleation score result was “inactive”. As to VHKYSVDFGKGW, the amyloid nucleation score result was “inactive”.

For the substance VHLWGGRGHQLVWVHVRWGV, the amyloid nucleation score result was “inactive”. For VHREVGLDFYDNVTCTMFHI the value was “inactive”; for VHSIYSTNFVLVFIPQSSVN, 1.9 ± 0.075; for VIANVKIMTFFMAFSAVHTM, 1.48 ± 0.13. For VIAVRYYRLLDRMNVSGSVF the value was “inactive”; for VIFNHVLACADYGVHKVVDL, “inactive”; for VIIIEWV, “inactive”. The value for VITTVTTWGLRAGDVMRRTR was 1.11 ± 0.17. Consider VIYHPRFSRFLCEDWHDTCS, for which the amyloid nucleation score result is “inactive”. Regarding VKCVYERRDGRLWLMILAMG, the amyloid nucleation score was -0.481 ± 0.52. As for VKDNFRFSLNRPMKRHVVWA, the amyloid nucleation score entry was “inactive”. The value for VKFMMPRVDIWFKDGVRRYT was “inactive”; that for VKGGRLISLNRVLFLEDPVG was “inactive”. With VKISPNAWALQLR, the amyloid nucleation score entry was “inactive”. For VKSVLFDGKL the value was “inactive”; for VLAMIVRHRKYKIDFIFMLD, “inactive”; for VLARLQLHFCSMTSDRYGLM, 1.04 ± 0.11. The value for VLCLLGSSVSS was “inactive”; that for VLDVFKGIW was “inactive”.

As for VLDVVGKKFMRVSWQDGMPG, the amyloid nucleation score turned out to be 1.13 ± 0.18. For VLFNSPTRGVHLLQTGSRQS, the amyloid nucleation score entry was “inactive”. The value for VLGDMVYGGHAL was “inactive”; that for VLGILYSTE was “inactive”. Take VLKSIGV: the amyloid nucleation score result is “inactive”. For VLLCYNIVKPYNVSC the value was “inactive”; for VLLDMFRNFVWNSRVVFNGS, “inactive”.

Values taken from the supplement of paper PMC12042874.
